Test results published in patent US20250339569A1 (3B PHARMACEUTICALS, published 2025).
Starred links: 1 amine or outer side, 2 acyl side, 3 side chain; linkers in the order of their positions; H or OH if unused. Positions of bridges follow the written chain, without caps; N, C: chain ends. Non-standard residues stand in square brackets, D forms with d. Primed or numbered codes have the meaning given here. No end group written: not given here. *: point of attachment. Af3(CMPy) = 3-amino-L-phenylalanine acylated on the ring amine with 5-cyano-1-methyl-1H-pyrazole-4-carboxylic acid, Cn1ncc(C(=O)Nc2cccc(C[C@H](N[*:1])C(=O)[*:2])c2)c1C#N; Af3(Hspy) = 3-amino-L-phenylalanine, ring amine acylated with 4-sulfamoyl-1H-pyrrole-2-carboxylic acid, NS(=O)(=O)c1c[nH]c(C(=O)Nc2cccc(C[C@H](N[*:1])C(=O)[*:2])c2)c1; Aph(Hsfu) = 4-amino-L-phenylalanine, ring amine acylated with 4-sulfamoylfuran-2-carboxylic acid, NS(=O)(=O)c1coc(C(=O)Nc2ccc(C[C@H](N[*:1])C(=O)[*:2])cc2)c1; Aph(HO-Succinyl) = 4-aminophenylalanine acylated on the ring amine with succinic acid (free carboxyl), O=C(CCC(=O)[*:3])Nc1ccc(C[C@H](N[*:1])C(=O)[*:2])cc1; Af3(PrHydr) = 3-amino-L-phenylalanine, ring amine acylated by 4-(hydroxycarbamoyl)butanoic acid, O=C(CCCC(=O)Nc1cccc(C[C@H](N[*:1])C(=O)[*:2])c1)NO; Af3(DkpAc) = 3-amino-L-phenylalanine acylated on the ring amine with 2-(3,6-dioxopiperazin-2-yl)acetic acid; Ttds(4) = 1,13-diamino-4,7,10-trioxatridecan-succinamic acid spacer, O=C(CCC(=O)[*:2])NCCCOCCOCCOCCCN[*:1]; Phe(3-NHCO(CH2)3SO2NH2) = N[C@@H](Cc1cccc(NC(=O)CCCS(N)(=O)=O)c1)C(=O)O; APAc″ = 2-(4-(amino)piperidin-1-yl)acetic acid, NC1CCN(CC(=O)*)CC1; DOTA = O=C(O)CN1CCN(CC(=O)O)CCN(CC(=O)*)CCN(CC(=O)O)CC1; Biotin = O=C1N[C@H]2[C@H](CS[C@H]2CCCCC(=O)*)N1; PPAc = 4-carboxymethyl piperazine linker; mXylylene = c1cc(C[*:1])cc(C[*:2])c1; Af3(Aype) = not defined here; Af3(Hytr) = not defined here; Aph(Aybu) = not defined here; Dap = NC[C@H](N)C(=O)O; AEEA = NCCOCCOCC(=O)O

B1: 3BP-2776: H-Met-Val-Tyr-[Cys(3MeBn)-Glu-Gly-Asp-Trp-Leu-Thr-Trp-Gln-Cys]-Ttds-Lys(Bio)-NH2 (peptide)
peptide: H-MVYCEGDWLTWQC[Ttds(4)]K(Biotin)-NH2
modifications: linker 4-13 via mXylylene
SMILES: CSCC[C@H](N)C(=O)N[C@H](C(=O)N[C@@H](Cc1ccc(O)cc1)C(=O)N[C@H]1CSCc2cccc(c2)CSC[C@@H](C(=O)NCCCOCCOCCOCCCNC(=O)CCC(=O)N[C@@H](CCCCNC(=O)CCCC[C@@H]2SC[C@@H]3NC(=O)N[C@@H]32)C(N)=O)NC(=O)[C@H](CCC(N)=O)NC(=O)[C@H](Cc2c[nH]c3ccccc23)NC(=O)[C@H]([C@@H](C)O)NC(=O)[C@H](CC(C)C)NC(=O)[C@H](Cc2c[nH]c3ccccc23)NC(=O)[C@H](CC(=O)O)NC(=O)CNC(=O)[C@H](CCC(=O)O)NC1=O)C(C)C
notes: Cyclic peptide, biotinylated
B2: 3BP-2778: H-Met-Arg-[Cys(3MeBn)-Glu-Ile-Trp-Val-Asp-Gly-Trp-Val-Asp-Cys]-Ttds-Lys(Bio)-NH2 (peptide)
peptide: H-MRCEIWVDGWVDC[Ttds(4)]K(Biotin)-NH2
modifications: linker 3-13 via mXylylene
SMILES: CC[C@H](C)[C@@H]1NC(=O)[C@H](CCC(=O)O)NC(=O)[C@@H](NC(=O)[C@H](CCCNC(=N)N)NC(=O)[C@@H](N)CCSC)CSCc2cccc(c2)CSC[C@@H](C(=O)NCCCOCCOCCOCCCNC(=O)CCC(=O)N[C@@H](CCCCNC(=O)CCCC[C@@H]2SC[C@@H]3NC(=O)N[C@@H]32)C(N)=O)NC(=O)[C@H](CC(=O)O)NC(=O)[C@H](C(C)C)NC(=O)[C@H](Cc2c[nH]c3ccccc23)NC(=O)CNC(=O)[C@H](CC(=O)O)NC(=O)[C@H](C(C)C)NC(=O)[C@H](Cc2c[nH]c3ccccc23)NC1=O
notes: Cyclic peptide, biotinylated
B3: 3BP-2777: H-Met-Val-Tyr-[Cys(3MeBn)-Glu-Gly-Ser-Trp-Leu-Gly-Trp-Ser-Cys]-Ttds-Lys(Bio)-NH2 (peptide)
peptide: H-MVYCEGSWLGWSC[Ttds(4)]K(Biotin)-NH2
modifications: linker 4-13 via mXylylene
SMILES: CSCC[C@H](N)C(=O)N[C@H](C(=O)N[C@@H](Cc1ccc(O)cc1)C(=O)N[C@H]1CSCc2cccc(c2)CSC[C@@H](C(=O)NCCCOCCOCCOCCCNC(=O)CCC(=O)N[C@@H](CCCCNC(=O)CCCC[C@@H]2SC[C@@H]3NC(=O)N[C@@H]32)C(N)=O)NC(=O)[C@H](CO)NC(=O)[C@H](Cc2c[nH]c3ccccc23)NC(=O)CNC(=O)[C@H](CC(C)C)NC(=O)[C@H](Cc2c[nH]c3ccccc23)NC(=O)[C@H](CO)NC(=O)CNC(=O)[C@H](CCC(=O)O)NC1=O)C(C)C
notes: Cyclic peptide, biotinylated
B4: 3BP-3869 (peptide)
peptide: {DOTA-AEEA}-YCE[dP]DWLTWSC-NH2
modifications: linker 2-11 via mXylylene
SMILES: CC(C)C[C@@H]1NC(=O)[C@H](Cc2c[nH]c3ccccc23)NC(=O)[C@H](CC(=O)O)NC(=O)[C@H]2CCCN2C(=O)[C@H](CCC(=O)O)NC(=O)[C@@H](NC(=O)[C@H](Cc2ccc(O)cc2)NC(=O)COCCOCCNC(=O)CN2CCN(CC(=O)O)CCN(CC(=O)O)CCN(CC(=O)O)CC2)CSCc2cccc(c2)CSC[C@@H](C(N)=O)NC(=O)[C@H](CO)NC(=O)[C@H](Cc2c[nH]c3ccccc23)NC(=O)[C@H]([C@@H](C)O)NC1=O
B5: 3BP-4338 (peptide)
peptide: DCE[dP]DWLTW[Dap]C-NH2
modifications: lactam 1-10; linker 2-11 via mXylylene; not fully specified (N-terminus); also: indium complexed by DOTA
B6: 3BP-4337 (peptide)
peptide: VDCE[dP]DWLTW[Dap]C-NH2
modifications: lactam 2-11; linker 3-12 via mXylylene; not fully specified (N-terminus); also: indium complexed by DOTA
B7: 3BP-4264 (peptide)
peptide: {DOTA}-VDCE[dP]DWLTW[Dap]C-NH2
modifications: lactam 2-11; linker 3-12 via mXylylene
SMILES: CC(C)C[C@@H]1NC(=O)[C@H](Cc2c[nH]c3ccccc23)NC(=O)[C@H](CC(=O)O)NC(=O)[C@H]2CCCN2C(=O)[C@H](CCC(=O)O)NC(=O)[C@@H]2CSCc3cccc(c3)CSC[C@@H](C(N)=O)NC(=O)[C@H](CNC(=O)C[C@H](NC(=O)[C@@H](NC(=O)CN3CCN(CC(=O)O)CCN(CC(=O)O)CCN(CC(=O)O)CC3)C(C)C)C(=O)N2)NC(=O)[C@H](Cc2c[nH]c3ccccc23)NC(=O)[C@H]([C@@H](C)O)NC1=O

target: T1, Fc-fusion protein of human carbonic anhydrase IX (human, UniProt Q16790 38-414); test: SPR, captured hCAIX-Fc; t1/2 category D: <=2.0 min
Description: (§1) Stock solutions of test compounds were prepared by dissolving each compound in DMSO. DMSO stock solution were diluted 1:1000 in Running Buffer without DMSO. […] SPR binding analyses were performed in Single Cycle Kinetic (SCK) mode at 25° C.
(§2) For each test compound, SPR raw data in the form of resonance units (RU) were plotted as sensorgrams using the Biacore™ T200 control software. The signal from the blank sensorgram was subtracted from that of the test compound sensorgram (blank corrected). The blank corrected sensorgram was corrected for baseline drift by subtracting the sensorgram of a SCK run without the test compound (running buffer only). […] Raw data and fit results were imported as text files in IDBS. The pKD value (negative decadic logarithm of dissociation constant) was calculated in the IDBS excel template.

Binder | t1/2 (half-life of the complex, SPR)
{DOTA-APAc″}-VYCE[dP]D[Af3(DkpAc)]LTWSC-NH2 (linker 3-12 via mXylylene) [3BP-4288] | ≤ 2 min
{DOTA-APAc″}-VYCE[dP]D[Af3(CMPy)]LTWSC-NH2 (linker 3-12 via mXylylene) [3BP-4305] | ≤ 2 min
{DOTA-APAc″}-VYCE[dP]D[Aph(HO-Succinyl)]LTWSC-NH2 (linker 3-12 via mXylylene) [3BP-4356] | ≤ 2 min

target: T1, Fc-fusion protein of human carbonic …; test: SPR, captured hCAIX-Fc; t1/2 category A: >15.0 min

Binder | t1/2 (half-life of the complex, SPR)
{DOTA-PPAc}-DCE[dP]D[Phe(3-NHCO(CH2)3SO2NH2)]LTW[Dap]C-NH2 (lactam 1-10; linker 2-11 via mXylylene) [3BP-4497] | > 15 min

target: human carbonic anhydrase 9 (CAIX) (human, UniProt Q16790 38-459); test: FACS binding assay on CAIX-expressing HT-29 cells, biotinylated compound detected with APC-streptavidin; pEC50 category (A = pEC50 >8.0)
Description: (§3) CAIX-expressing human HT-29 colorectal cancer cells (DSMZ, RRID: CVCL_0320) were cultured in McCoys's 5A modified medium (Biochrom, #F1015) including 10% fetal calf serum (FCS), 2 mM L-glutamine, 100 U/ml penicillin and 100 μg/mL streptomycin. Cells were detached with Accutase (Biolegend, #423201) and washed in FACS buffer (PBS including 1% FCS). Cells were diluted in FACS buffer to a final concentration of 500.000 cells per ml. 200 μL of the cell suspension were transferred to a u-shaped non-binding 96-well plate (Greiner) and cells were washed in ice-cold FACS buffer.
(§4) When biotinylated compounds were used an additional incubation step with 1 μg/mL APC-Streptavidin (Miltenyi; #130-106-791) in 50 μL FACS buffer for 30 minutes on ice was performed.
(§5) Cells were washed twice with ice-cold FACS buffer and analyzed in an Attune NxT flow cytometer (Thermo Fisher). Median fluorescence intensities (MFI) of the APC/Cy5-channel were calculated by Attune NxT software.

Binder | pEC50
B1 | > 8 pec50
B2 | > 8 pec50
B3 | > 8 pec50

target: T2, human carbonic anhydrase IX (CAIX) (human, UniProt Q16790 38-459); test: FACS competition, HT-29 cells, tracer 3BP-2776; pIC50 category C: 6.1-7.0
Description: as §3, §4, §5

Binder | pIC50
{DOTA-PPAc}-QCE[dP]D[Af3(Hytr)]LTWSC-NH2 (linker 2-11 via mXylylene; reading uncertain) [3BP-4882] | 6.1 to 7 pic50
{DOTA-PPAc}-QCE[dP]D[Aph(Aybu)]LTWSC-NH2 (linker 2-11 via mXylylene; reading uncertain) [3BP-4884] | 6.1 to 7 pic50
{DOTA-PPAc}-QCE[dP]D[Af3(Aype)]LTWSC-NH2 (linker 2-11 via mXylylene; reading uncertain) [3BP-4886] | 6.1 to 7 pic50

target: T1, Fc-fusion protein of human carbonic …; test: SPR, captured hCAIX-Fc; pKD category A: >8.0

Binder | pKD
{DOTA-PPAc}-DCE[dP]D[Phe(3-NHCO(CH2)3SO2NH2)]LTW[Dap]C-NH2 (lactam 1-10; linker 2-11 via mXylylene) [3BP-4497] | > 8 pkd

target: T2, human carbonic anhydrase IX (CAIX); test: FACS competition, HT-29 cells, tracer 3BP-2776; pIC50 category B: 7.1-8.0
Description: as §3, §4, §5

Binder | pIC50
{DOTA-PPAc}-QCE[dP]D[Aph(Hsfu)]LTWSC-NH2 (linker 2-11 via mXylylene) [3BP-4813] | 7.1 to 8 pic50
{DOTA-PPAc}-DCE[dP]D[Phe(3-NHCO(CH2)3SO2NH2)]LTW[Dap]C-NH2 (lactam 1-10; linker 2-11 via mXylylene) [3BP-4497] | 7.1 to 8 pic50
{DOTA-PPAc}-QCE[dP]D[Af3(Hspy)]LTWSC-NH2 (linker 2-11 via mXylylene) [3BP-4789] | 7.1 to 8 pic50
{DOTA-PPAc}-QCE[dP]D[Af3(PrHydr)]LTWSC-NH2 (linker 2-11 via mXylylene) [3BP-4515] | 7.1 to 8 pic50

target: T1, Fc-fusion protein of human carbonic …; test: SPR, captured hCAIX-Fc; pKD category B: 7.1-8.0
Description: as §1, §2

Binder | pKD
{DOTA-PPAc}-QCE[dP]D[Aph(Hsfu)]LTWSC-NH2 (linker 2-11 via mXylylene) [3BP-4813] | 7.1 to 8 pkd
{DOTA-APAc″}-VYCE[dP]D[Af3(DkpAc)]LTWSC-NH2 (linker 3-12 via mXylylene) [3BP-4288] | 7.1 to 8 pkd
B4 | 7.1 to 8 pkd
{DOTA-APAc″}-VYCE[dP]D[Af3(CMPy)]LTWSC-NH2 (linker 3-12 via mXylylene) [3BP-4305] | 7.1 to 8 pkd
{DOTA-PPAc}-QCE[dP]D[Af3(Hspy)]LTWSC-NH2 (linker 2-11 via mXylylene) [3BP-4789] | 7.1 to 8 pkd
{DOTA-APAc″}-VYCE[dP]D[Aph(HO-Succinyl)]LTWSC-NH2 (linker 3-12 via mXylylene) [3BP-4356] | 7.1 to 8 pkd

target: T1, Fc-fusion protein of human carbonic …; test: SPR, captured hCAIX-Fc; t1/2 category C: 2.1-5.0 min

Binder | t1/2 (half-life of the complex, SPR)
{DOTA-PPAc}-QCE[dP]D[Aph(Hsfu)]LTWSC-NH2 (linker 2-11 via mXylylene) [3BP-4813] | 2.1 to 5 min
B4 | 2.1 to 5 min
{DOTA-PPAc}-QCE[dP]D[Af3(Hspy)]LTWSC-NH2 (linker 2-11 via mXylylene) [3BP-4789] | 2.1 to 5 min
{DOTA-PPAc}-QCE[dP]D[Af3(PrHydr)]LTWSC-NH2 (linker 2-11 via mXylylene) [3BP-4515] | 2.1 to 5 min

target: human carbonic anhydrase 9 (CAIX) (human, UniProt Q16790 38-459); test: FACS competition on HT-29 cells, competitor tracer 3BP-4149; category A = pIC50 >8.0
Description: as §3, §4, §5

Binder | pIC50
B5 | > 8 pic50
{DOTA-Gab}-DCE[dP]DWLTW[Dap]C-NH2 (lactam 10-1; linker 2-11 via mXylylene) [3BP-4263] | > 8 pic50
B6 | > 8 pic50
B7 | > 8 pic50
